This note sets out measurements from US20240425885.

Assay in all cases: cleavage_in_vitro
Series [1] concerns OMNI-110 (metagenomic, unknown). Conditions: TXTL; PAM NNRTNCNN
In series [2] the test system is T1, OMNI-114 (metagenomic, unknown).
T1 sequence: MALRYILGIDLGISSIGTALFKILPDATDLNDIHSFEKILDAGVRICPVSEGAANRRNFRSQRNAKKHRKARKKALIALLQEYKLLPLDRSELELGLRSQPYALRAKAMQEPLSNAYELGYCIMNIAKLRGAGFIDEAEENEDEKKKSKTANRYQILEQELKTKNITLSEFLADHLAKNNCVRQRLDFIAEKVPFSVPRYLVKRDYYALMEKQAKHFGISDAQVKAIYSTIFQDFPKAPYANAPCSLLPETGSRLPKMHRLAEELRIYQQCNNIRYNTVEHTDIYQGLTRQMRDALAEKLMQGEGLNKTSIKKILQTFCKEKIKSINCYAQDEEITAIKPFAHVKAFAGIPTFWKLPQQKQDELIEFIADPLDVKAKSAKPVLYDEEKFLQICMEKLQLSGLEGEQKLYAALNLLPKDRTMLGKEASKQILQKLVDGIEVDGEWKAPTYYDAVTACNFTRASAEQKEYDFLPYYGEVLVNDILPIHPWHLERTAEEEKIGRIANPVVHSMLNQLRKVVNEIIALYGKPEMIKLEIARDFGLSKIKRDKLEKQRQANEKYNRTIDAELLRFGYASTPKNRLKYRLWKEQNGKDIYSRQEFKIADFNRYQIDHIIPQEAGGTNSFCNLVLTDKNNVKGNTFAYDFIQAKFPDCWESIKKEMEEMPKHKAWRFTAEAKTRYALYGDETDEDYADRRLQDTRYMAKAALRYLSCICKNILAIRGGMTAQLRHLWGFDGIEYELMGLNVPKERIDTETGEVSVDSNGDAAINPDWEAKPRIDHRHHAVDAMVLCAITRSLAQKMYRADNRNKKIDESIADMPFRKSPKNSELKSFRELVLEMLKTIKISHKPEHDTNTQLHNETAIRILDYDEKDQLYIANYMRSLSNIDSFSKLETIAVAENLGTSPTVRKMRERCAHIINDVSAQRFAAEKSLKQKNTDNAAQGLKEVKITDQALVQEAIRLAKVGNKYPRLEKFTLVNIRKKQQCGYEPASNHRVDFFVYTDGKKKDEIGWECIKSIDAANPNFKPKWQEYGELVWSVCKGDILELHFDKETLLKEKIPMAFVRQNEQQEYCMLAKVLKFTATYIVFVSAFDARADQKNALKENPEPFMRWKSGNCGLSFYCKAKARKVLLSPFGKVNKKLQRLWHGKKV
To be noted: TXTL; PAM NRGGACNN

Series [3] deals with T2, OMNI-116 (metagenomic, unknown).
T2 sequence: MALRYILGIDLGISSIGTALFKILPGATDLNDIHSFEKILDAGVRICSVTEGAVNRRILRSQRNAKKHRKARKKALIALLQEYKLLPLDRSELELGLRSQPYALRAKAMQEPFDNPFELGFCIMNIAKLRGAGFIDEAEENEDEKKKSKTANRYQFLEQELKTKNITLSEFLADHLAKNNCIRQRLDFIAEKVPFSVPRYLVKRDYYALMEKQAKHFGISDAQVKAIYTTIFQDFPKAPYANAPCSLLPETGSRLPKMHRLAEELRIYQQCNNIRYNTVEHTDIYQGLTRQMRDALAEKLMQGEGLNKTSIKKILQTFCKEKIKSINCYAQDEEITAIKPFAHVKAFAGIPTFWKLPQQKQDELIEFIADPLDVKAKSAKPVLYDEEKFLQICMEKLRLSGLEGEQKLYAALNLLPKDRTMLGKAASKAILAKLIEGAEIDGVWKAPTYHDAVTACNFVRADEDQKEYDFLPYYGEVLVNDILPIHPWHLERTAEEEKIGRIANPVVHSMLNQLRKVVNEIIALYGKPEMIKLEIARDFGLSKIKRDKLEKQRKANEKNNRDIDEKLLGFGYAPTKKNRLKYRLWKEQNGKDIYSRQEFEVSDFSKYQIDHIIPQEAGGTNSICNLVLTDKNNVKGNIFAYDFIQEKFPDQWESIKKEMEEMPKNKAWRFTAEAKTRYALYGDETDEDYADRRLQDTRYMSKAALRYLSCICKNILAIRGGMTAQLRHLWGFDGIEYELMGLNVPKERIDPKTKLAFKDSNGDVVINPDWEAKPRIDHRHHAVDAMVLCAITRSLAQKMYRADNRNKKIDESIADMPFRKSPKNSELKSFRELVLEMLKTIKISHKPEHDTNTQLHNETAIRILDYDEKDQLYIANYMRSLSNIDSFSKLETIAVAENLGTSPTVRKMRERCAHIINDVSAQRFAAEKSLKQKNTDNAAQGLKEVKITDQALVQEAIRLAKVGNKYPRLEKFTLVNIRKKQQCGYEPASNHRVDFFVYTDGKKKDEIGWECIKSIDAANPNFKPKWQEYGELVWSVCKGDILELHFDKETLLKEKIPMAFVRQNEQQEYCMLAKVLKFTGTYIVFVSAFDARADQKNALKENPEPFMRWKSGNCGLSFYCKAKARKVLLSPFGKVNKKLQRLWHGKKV
To be noted: TXTL; PAM NRGGACNN

The test system of series [4] is OMNI-119 (metagenomic, unknown). Conditions: TXTL; PAM NNACNNNN
Sequence of OMNI-119 (metagenomic, unknown) (chain, as listed by the source): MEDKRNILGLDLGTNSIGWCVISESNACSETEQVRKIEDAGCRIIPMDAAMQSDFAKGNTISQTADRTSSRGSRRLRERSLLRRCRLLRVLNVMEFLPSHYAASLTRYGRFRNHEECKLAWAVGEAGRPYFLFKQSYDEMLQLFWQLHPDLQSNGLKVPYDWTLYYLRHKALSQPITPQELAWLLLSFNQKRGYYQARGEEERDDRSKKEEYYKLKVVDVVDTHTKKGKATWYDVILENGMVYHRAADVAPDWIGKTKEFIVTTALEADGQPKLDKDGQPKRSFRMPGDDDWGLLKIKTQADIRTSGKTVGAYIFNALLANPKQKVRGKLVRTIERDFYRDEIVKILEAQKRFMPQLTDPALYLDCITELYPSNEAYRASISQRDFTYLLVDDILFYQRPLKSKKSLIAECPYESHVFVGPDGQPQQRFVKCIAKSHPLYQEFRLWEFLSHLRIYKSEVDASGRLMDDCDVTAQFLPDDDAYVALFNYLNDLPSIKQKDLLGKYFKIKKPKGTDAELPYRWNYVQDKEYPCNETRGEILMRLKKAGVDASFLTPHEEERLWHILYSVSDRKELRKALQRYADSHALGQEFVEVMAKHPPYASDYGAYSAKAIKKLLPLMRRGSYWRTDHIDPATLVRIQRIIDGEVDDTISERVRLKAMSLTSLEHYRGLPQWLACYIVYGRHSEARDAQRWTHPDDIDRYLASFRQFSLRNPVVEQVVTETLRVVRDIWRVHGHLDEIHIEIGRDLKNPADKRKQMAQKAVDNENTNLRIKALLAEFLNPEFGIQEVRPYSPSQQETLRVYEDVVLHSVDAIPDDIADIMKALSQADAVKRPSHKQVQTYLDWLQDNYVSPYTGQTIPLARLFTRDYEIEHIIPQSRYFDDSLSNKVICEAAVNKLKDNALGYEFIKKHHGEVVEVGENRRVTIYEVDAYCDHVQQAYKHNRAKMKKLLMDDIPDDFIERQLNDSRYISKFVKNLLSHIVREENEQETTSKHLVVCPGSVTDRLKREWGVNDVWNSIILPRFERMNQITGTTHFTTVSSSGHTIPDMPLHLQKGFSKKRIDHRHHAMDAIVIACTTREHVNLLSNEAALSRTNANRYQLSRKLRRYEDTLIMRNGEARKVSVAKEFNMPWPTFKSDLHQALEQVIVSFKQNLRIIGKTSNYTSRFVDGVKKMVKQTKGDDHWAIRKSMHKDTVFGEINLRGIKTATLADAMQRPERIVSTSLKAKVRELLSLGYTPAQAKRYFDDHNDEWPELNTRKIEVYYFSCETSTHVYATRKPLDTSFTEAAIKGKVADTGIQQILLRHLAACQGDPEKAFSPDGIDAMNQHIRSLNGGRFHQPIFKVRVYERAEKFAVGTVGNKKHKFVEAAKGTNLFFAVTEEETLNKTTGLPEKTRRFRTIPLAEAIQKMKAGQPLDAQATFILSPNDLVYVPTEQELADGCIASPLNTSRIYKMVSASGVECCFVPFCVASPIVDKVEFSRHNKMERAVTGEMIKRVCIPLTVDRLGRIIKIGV
The subject of series [5] is T3, OMNI-120 (metagenomic, unknown).
T3 sequence: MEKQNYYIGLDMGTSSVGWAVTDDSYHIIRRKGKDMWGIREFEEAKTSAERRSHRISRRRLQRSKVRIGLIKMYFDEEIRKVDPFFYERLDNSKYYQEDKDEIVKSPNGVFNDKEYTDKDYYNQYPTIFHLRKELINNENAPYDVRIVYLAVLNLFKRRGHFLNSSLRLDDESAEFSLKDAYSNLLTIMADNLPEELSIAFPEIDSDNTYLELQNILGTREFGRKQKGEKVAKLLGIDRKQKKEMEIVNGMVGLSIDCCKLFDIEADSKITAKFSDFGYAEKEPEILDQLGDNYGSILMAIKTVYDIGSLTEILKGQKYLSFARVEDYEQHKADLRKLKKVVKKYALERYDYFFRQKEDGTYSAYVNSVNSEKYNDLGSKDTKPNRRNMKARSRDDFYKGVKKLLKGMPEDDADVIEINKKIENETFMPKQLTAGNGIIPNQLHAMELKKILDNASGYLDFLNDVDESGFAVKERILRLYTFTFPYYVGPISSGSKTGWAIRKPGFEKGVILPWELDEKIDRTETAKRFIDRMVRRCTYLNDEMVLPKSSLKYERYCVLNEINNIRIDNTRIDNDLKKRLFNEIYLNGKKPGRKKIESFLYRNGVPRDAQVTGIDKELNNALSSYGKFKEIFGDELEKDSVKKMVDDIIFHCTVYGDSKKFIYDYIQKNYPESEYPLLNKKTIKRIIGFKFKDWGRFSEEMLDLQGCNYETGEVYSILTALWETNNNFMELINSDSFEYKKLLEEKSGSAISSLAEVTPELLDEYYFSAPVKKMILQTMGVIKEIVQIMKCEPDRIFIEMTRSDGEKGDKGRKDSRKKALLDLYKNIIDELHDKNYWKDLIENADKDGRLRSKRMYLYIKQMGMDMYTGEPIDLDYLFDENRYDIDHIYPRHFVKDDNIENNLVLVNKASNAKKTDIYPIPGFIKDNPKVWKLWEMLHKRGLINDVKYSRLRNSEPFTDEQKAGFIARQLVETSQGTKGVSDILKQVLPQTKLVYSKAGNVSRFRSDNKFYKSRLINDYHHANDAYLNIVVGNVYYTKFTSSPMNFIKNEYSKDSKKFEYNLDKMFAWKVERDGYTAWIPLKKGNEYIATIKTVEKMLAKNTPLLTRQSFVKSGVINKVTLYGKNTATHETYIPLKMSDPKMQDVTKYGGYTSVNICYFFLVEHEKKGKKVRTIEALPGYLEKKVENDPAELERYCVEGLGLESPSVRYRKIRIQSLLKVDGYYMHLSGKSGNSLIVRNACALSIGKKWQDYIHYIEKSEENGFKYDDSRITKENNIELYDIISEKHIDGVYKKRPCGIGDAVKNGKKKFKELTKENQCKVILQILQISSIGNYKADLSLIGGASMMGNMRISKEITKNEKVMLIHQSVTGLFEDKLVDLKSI
To be noted: TXTL; PAM NRVACNNN

Series [6] relates to T4, OMNI-109 (metagenomic, unknown).
T4 sequence: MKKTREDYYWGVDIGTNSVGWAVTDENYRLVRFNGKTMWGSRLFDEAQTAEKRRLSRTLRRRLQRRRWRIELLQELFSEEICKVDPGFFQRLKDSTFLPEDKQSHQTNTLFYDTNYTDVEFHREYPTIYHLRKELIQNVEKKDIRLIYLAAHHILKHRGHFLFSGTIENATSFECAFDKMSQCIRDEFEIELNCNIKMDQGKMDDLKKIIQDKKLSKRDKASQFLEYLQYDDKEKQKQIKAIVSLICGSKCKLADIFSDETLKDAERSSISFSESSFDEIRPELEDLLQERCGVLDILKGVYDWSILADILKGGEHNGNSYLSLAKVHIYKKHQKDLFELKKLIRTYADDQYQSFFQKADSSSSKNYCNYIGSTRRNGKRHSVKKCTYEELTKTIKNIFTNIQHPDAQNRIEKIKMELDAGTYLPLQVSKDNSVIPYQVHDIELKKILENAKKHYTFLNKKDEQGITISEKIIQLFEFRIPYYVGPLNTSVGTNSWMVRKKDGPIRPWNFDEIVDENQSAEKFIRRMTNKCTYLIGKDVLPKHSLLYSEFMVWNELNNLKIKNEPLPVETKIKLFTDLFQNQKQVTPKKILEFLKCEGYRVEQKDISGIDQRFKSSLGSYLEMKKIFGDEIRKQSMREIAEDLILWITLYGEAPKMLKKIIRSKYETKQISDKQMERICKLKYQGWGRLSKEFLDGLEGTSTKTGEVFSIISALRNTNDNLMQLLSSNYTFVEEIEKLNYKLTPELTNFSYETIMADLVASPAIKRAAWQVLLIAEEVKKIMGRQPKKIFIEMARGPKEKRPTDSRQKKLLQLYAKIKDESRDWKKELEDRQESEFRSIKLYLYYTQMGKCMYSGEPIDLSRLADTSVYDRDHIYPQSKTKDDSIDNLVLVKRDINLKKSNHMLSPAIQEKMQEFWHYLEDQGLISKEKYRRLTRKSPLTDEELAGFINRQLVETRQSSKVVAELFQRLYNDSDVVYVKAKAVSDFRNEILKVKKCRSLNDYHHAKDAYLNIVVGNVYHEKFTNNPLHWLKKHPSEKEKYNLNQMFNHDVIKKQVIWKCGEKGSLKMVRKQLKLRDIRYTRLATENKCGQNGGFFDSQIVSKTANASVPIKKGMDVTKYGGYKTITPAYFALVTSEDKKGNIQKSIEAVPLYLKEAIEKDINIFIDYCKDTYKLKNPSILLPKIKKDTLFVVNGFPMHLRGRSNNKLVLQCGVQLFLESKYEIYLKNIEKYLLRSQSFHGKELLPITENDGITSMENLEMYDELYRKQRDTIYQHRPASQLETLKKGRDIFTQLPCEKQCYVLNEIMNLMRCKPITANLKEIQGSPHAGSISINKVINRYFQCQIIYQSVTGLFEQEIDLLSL
Conditions: TXTL; PAM NNAARCNN

Sequence of OMNI-110 (metagenomic, unknown) (chain, as listed by the source): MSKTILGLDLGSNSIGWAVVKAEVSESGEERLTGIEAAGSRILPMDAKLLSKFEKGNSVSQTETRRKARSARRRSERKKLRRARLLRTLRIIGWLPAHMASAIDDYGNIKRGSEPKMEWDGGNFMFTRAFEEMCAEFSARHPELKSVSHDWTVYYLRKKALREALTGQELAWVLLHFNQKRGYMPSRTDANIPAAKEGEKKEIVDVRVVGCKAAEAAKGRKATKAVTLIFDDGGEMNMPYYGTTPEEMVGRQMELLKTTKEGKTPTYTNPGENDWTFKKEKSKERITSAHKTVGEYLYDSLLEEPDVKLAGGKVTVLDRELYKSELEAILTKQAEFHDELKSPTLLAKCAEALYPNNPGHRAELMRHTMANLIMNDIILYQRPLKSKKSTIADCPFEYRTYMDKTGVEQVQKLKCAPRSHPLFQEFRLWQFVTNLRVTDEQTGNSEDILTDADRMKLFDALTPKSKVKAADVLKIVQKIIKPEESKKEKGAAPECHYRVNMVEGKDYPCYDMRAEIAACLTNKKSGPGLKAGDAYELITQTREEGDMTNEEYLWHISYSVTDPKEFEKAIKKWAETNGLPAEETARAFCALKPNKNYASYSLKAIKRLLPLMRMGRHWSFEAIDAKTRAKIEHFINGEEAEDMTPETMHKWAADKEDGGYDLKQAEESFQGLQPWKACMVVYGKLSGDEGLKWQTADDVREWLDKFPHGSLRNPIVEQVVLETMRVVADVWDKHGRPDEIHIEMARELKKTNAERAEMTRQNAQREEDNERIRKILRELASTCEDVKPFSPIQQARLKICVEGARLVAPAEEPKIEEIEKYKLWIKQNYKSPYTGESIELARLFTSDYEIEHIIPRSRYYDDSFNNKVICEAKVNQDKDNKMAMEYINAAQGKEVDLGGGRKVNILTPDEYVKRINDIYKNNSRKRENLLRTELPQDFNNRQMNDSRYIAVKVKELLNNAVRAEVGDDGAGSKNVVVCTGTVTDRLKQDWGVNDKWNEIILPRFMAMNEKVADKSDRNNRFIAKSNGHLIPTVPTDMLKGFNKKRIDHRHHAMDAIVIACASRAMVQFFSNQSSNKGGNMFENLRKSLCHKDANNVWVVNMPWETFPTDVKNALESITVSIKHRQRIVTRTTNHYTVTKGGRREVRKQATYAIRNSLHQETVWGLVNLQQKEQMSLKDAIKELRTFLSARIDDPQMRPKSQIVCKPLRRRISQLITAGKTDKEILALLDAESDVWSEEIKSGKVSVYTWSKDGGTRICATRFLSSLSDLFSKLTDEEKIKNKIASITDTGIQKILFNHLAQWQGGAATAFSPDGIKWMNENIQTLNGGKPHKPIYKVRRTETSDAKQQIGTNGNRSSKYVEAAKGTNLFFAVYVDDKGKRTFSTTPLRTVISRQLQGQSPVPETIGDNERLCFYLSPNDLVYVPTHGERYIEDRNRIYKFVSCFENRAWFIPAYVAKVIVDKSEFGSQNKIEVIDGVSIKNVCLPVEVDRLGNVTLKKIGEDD

As for “GGAAGAGCAGAGCCUUGGUCUCGUUGUGAUUCGCUUCCGAAAGCAAGCGAAUCACAAUAAGGAUUAUUCCGUUGUGAAAACAUUUAAGUCGGGCCUCCUUCGGUUGGCUCGGCUUUUUUU / GGAAGAGCAGAGCCTTGGTCTCNNNNNNNN / NNNNNNNNGAGACCAAGGCTCTGCTCTTCC [T2 sgRNA 18 V1 ; T2 protospacer + 8N PAM library (pbPOS T2)]”, the activity (1-depletion score) in series [1] was determined as 0.95. As to “GGAAGAGCAGAGCCUUGGUCUCGUUUUACUUGCCUGUCGAAAGAUAGGCAAUAAAACAAAUAUAAUUUCUUUUGAAAUUAUAUGUAAAAUGUUUAAAGCCCUCCUUUUCAGGGGGGCUUUUUU / GGAAGAGCAGAGCCTTGGTCTCNNNNNNNN / NNNNNNNNGAGACCAAGGCTCTGCTCTTCC [T2 sgRNA 20 V1 ; T2 protospacer + 8N PAM library (pbPOS T2)]”, the activity (1-depletion score) in series [2] and in series [3] was 0.96 throughout. In series [4], “GGAAGAGCAGAGCCUUGGUCUCGUUGUGAUUUGCUGAGGAAACUAGCAAAUCACAAUAAGGAUUAUUCCGUUGUGAACACAUUAGGUCCCAACCCAUCGUCCUUUAACGGUGGGUUAUUUUUU / GGAAGAGCAGAGCCTTGGTCTCNNNNNNNN / NNNNNNNNGAGACCAAGGCTCTGCTCTTCC [T2 sgRNA 22 V1 ; T2 protospacer + 8N PAM library (pbPOS T2)]” gave an activity (1-depletion score) of 0.97.

In turn, “GGAAGAGCAGAGCCUUGGUCUCGUUUGAGAGCCUUGUUAGAAAUAACAAGGCGAGUGCAAAUAAGGUUUAACCGAAUUCACCGUUUAUGGACCGCAUUGUGCGGAUUUUAAAAAAGACUUUCAAAGUCUUUUUU / GGAAGAGCAGAGCCTTGGTCTCNNNNNNNN / NNNNNNNNGAGACCAAGGCTCTGCTCTTCC [T2 sgRNA 23 V1 ; T2 protospacer + 8N PAM library (pbPOS T2)]” came in with an activity (1-depletion score) in series [5] of 0.95. The sequence “GGAAGAGCAGAGCCUUGGUCUCGUUUGAGAGUAGUGUAAGAAAUUACACUACAAGUUCAAAUAAAAAUUUAUUCUAAUCGCUCUUCGGAGCCUCCACAGGAGUGGAUUUAAGACUUGCUUCGGCGAGUCUUUUUU / GGAAGAGCAGAGCCTTGGTCTCNNNNNNNN / NNNNNNNNGAGACCAAGGCTCTGCTCTTCC [T2 sgRNA 17 V1 ; T2 protospacer + 8N PAM library (pbPOS T2)]” gave an activity (1-depletion score) in series [6] of 0.94.
